These are literature values, as cited in paper PMC5473928.

pKd: −log10 of the molar value. “And” between values parts separate entries of the source, which are not always exact repeats. Identical values can stand only once.

This data set has as its target SOS allosteric site (Homo sapiens) (UniProt Q07889).

Broadly, the pKd is −log10 of the Kd, conventionally taken in molar units. In the case of KRas (from UniProt P01116), the pKd is 5.44 and 5.00.
